Drawing on patent US20140223606, “COMPOSITIONS AND METHODS COMPRISING SEQUENCES HAVING MEGANUCLEASE ACTIVITY” (PIONEER HI BRED INTERNATIONAL INC, published 2014), this text covers activity for one molecule.

What all share (experiment): cell_activity; maize
Holding throughout (conditions): tags: SV40 NLS

One data set concerns the target T1, MHP77.3(L9-02) (artificial).
T1 chain: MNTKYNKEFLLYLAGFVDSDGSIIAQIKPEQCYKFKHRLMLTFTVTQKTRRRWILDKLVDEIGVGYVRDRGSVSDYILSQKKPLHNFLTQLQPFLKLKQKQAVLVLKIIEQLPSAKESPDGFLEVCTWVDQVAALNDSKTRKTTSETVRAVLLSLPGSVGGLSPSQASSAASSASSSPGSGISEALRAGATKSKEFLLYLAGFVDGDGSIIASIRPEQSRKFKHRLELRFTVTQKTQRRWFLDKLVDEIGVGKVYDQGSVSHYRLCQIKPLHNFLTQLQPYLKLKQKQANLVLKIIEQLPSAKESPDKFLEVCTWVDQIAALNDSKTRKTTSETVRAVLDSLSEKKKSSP

A further data set concerns the target T2, MHP77.3(L9-12) (artificial).
T2 chain: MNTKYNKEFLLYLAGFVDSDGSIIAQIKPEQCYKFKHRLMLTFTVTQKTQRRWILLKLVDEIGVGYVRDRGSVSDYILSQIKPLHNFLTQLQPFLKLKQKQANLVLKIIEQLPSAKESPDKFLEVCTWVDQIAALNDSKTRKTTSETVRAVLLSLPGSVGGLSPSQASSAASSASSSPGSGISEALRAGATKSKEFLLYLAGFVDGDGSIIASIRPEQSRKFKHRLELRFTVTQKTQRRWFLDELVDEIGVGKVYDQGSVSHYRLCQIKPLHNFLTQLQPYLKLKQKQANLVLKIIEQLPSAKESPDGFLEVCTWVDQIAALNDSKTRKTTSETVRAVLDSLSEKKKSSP

The target of another data set is T3, MHP77.3 (artificial).
T3 chain: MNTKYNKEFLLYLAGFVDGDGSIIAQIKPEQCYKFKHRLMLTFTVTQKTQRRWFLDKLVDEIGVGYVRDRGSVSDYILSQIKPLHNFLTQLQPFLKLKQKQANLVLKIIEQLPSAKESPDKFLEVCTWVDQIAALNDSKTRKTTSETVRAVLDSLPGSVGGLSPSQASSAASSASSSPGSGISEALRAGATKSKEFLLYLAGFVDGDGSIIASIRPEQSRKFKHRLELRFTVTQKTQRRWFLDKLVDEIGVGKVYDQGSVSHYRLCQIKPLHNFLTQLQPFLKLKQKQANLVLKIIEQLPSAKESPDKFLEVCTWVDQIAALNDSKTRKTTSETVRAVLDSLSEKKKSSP

The next data set has as its target T4, MHP77.3(L9-11) (artificial).
T4 chain: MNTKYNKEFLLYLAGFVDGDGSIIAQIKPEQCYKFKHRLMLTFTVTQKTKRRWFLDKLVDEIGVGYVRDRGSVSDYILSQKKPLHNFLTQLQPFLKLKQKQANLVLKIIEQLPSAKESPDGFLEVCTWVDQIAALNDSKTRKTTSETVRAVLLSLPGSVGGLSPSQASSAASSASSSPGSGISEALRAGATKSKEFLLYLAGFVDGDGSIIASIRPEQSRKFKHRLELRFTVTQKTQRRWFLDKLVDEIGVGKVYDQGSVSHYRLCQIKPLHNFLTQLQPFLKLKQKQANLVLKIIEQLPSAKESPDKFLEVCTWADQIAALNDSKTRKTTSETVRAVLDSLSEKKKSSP

The next data set deals with T5, MHP77.3(15) (artificial).
T5 chain: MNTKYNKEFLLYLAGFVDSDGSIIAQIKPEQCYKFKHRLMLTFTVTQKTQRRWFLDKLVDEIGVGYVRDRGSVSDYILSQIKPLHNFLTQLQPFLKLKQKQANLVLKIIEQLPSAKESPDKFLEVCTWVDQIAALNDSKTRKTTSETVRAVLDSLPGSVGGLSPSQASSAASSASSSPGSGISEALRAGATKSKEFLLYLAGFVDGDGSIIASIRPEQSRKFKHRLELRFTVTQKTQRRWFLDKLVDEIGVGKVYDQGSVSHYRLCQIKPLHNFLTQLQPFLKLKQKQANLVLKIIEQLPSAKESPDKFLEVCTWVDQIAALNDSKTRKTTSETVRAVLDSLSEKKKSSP

B1: MHP77 recognition site (dsDNA)
DNA 1: GGGCGGTATGTATGTCATACTA
DNA 2: TAGTATGACATACATACCGCCC
Turning to B1, the activity in the data set with MHP77.3(L9-02) was 5 % target site mutation rate; with MHP77.3(L9-12) it was 19 % target site mutation rate; with MHP77.3, 11 % target site mutation rate; with MHP77.3(L9-11), 35 % target site mutation rate; with MHP77.3(15) it was 22 % target site mutation rate.
